The source of these data is publication doi:10.1101/2024.08.29.610268.

The target in this data set is NELF complex WT (NELF-A/B/D/E) (human, UniProt Q9H3P2;Q8WX92;Q8IXH7;P18615 1-528;1-628;1-590;1-380). Description: fluorescence anisotropy.

B1: HIV-1 TAR stem loop (structured_RNA)
RNA: CCAGAUCUGAGCCUGGGAGCUCUCUGG
For the molecule B1, the binding result is “binds”.
